Test results taken from publication PMC4899250 (Journal of neurochemistry, 2016).

Biological target: the molecule itself
Experiment: native MS

Ac-AGIGDTPSLEDEAAGHVTQARMVSKSKDGTGSDDKKAKG-NH2 [tau^106-144]
stoichiometry N: 2
